The chains are these.
T1: Mutated mouse β-catenin S33Y (mouse, UniProt Q02248 1-781)
T1 construct: Expressed from pMKITneo in COS-7 or NIH 3T3 cells; also called S33Y β-catenin
T1 sequence (looked up): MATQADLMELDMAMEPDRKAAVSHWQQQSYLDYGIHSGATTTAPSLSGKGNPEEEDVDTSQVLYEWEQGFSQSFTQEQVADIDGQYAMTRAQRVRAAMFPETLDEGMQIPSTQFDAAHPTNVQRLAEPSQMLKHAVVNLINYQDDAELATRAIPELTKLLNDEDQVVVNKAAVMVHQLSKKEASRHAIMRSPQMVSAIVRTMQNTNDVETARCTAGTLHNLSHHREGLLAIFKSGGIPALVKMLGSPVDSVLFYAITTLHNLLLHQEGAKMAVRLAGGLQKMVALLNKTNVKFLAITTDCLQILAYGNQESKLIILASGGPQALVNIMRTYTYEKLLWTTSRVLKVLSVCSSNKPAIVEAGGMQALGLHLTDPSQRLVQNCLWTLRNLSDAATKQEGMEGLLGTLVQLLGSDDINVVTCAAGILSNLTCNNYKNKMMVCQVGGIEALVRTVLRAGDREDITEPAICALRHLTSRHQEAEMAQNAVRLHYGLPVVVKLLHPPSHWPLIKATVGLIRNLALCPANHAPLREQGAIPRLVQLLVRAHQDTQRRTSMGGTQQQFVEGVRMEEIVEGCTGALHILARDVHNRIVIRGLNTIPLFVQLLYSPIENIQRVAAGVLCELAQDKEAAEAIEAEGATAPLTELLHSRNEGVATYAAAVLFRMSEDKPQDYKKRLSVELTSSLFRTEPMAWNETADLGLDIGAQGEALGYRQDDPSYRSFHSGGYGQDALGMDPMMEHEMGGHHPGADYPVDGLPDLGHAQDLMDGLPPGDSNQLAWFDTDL

B1: GAL4 AD fusion of B9L partial fragment, residues 245-439 of SEQ ID NO: 2 (other, not shown: large carriers)
chain: LANTAAEAVLQGRAESILAYHQQNVPRAKLDQAPKVPPTPEPLPLNTPSAGTPQSQPPPLPPPPPAPGSAPPALPPEGPPEDTSQDLAPNSVGAASTGGGTGGTHPNTPTAATANNPLPPGGDPGSAPGSALLGEATPTGNGQRNLVGSEGLSKEQLEHRERSLQTLRDIERLLLRSGETEPFLKGPPGGAGEGG
notes: Two-hybrid prey
B2: GAL4 AD fusion of B9L partial fragment, residues 292-439 of SEQ ID NO: 2 (other, not shown: large carriers)
chain: PSAGTPQSQPPPLPPPPPAPGSAPPALPPEGPPEDTSQDLAPNSVGAASTGGGTGGTHPNTPTAATANNPLPPGGDPGSAPGSALLGEATPTGNGQRNLVGSEGLSKEQLEHRERSLQTLRDIERLLLRSGETEPFLKGPPGGAGEGG
notes: Two-hybrid prey; also called B9L fragment of residues 292-439
B3: GAL4 AD fusion of B9L partial fragment, residues 440-564 of SEQ ID NO: 2 (other, not shown: large carriers)
chain: PPAQAPSAAQPPPSAPPGGLKKYEEPLQSMISQTQSLGGPPLEHEVPGHPQGGDMGQQMNMMMQRLGQDSLTPEQVAWRKLQEEYYEEKRRKEEQIGLHGGRPLQDMVGMGGMMGRGPPPPYHSK
notes: Two-hybrid prey
B4: GAL4 AD fusion of B9L partial fragment, residues 292-564 of SEQ ID NO: 2 (other, not shown: large carriers)
chain: PSAGTPQSQPPPLPPPPPAPGSAPPALPPEGPPEDTSQDLAPNSVGAASTGGGTGGTHPNTPTAATANNPLPPGGDPGSAPGSALLGEATPTGNGQRNLVGSEGLSKEQLEHRERSLQTLRDIERLLLRSGETEPFLKGPPGGAGEGGPPAQAPSAAQPPPSAPPGGLKKYEEPLQSMISQTQSLGGPPLEHEVPGHPQGGDMGQQMNMMMQRLGQDSLTPEQVAWRKLQEEYYEEKRRKEEQIGLHGGRPLQDMVGMGGMMGRGPPPPYHSK
notes: Two-hybrid prey
B5: GFP-B9L fusion protein (B9L cDNA fragment, SEQ ID NO: 4, in pEGFP-C2) (other)
chain: LANTAAEAVLQGRAESILAYHQQNVPRAKLDQAPKVPPTPEPLPLNTPSAGTPQSQPPPLPPPPPAPGSAPPALPPEGPPEDTSQDLAPNSVGAASTGGGTGGTHPNTPTAATANNPLPPGGDPGSAPGSALLGEATPTGNGQRNLVGSEGLSKEQLEHRERSLQTLRDIERLLLRSGETEPFLKGPPGGAGEGGPPAQAPSAAQPPPSAPPGGLKKYEEPLQSMISQTQSLGGPPLEHEVPGHPQGGDMGQQMNMMMQRLGQDSLTPEQVAWRKLQEEYYEEKRRKEEQIGLHGGRPLQDMVGMGGMMGRGPPPPYHSK
notes: Expressed in COS-7 and NIH 3T3 cells; not shown: green fluorescent protein (GFP) as encoded by vector pEGFP-C2 (Clontech)

For the first assay, the target named is T2, GAL4-β-catenin fusion protein (GAL4 BD fused with mouse β-catenin armadillo domain, residues 128 to 683) (yeast; mouse, UniProt P04386 1-147; Q02248 128-683).
T2 construct: Bait of the yeast two-hybrid system; also called mβ-catenin arm; β-catenin arm bait plasmid
As to the kind of experiment: yeast two-hybrid, β-galactosidase activity. An excerpt:
The respective bait plasmids were cotransfected with the B9L cDNA fragment-expressing clone obtained by the two-hybrid system in Example 1 into yeast HF7C strain, and the binding between the B9L protein and the respective β-catenin partial fragments were examined by the existence of β-galactosidase activity in the transformants. […] Thus, it was considered that the B9L protein binds to the N-terminal region of β-catenin arm (armadillo repeats 1-6).
In order to further examine which region of the B9L protein binds to the β-catenin arm, two-hybrid system was performed as follows. […] Each plasmid was cotransfected with the β-catenin arm bait plasmid prepared in Example 1 into yeast HF7C strain, and the binding of each B9L protein partial fragment and β-catenin arm was examined based on the presence or absence of β-galactosidase activity in the transformants. […] Thus, the B9L protein was indicated to bind to the β-catenin arm at the region of residues 292-439 in the amino acid sequence represented by SEQ ID NO: 2.
With B1, the binding result is given as “binds”.

For the molecule B2, the binding result is on record as “binds”.

For the molecule B3, the binding result is reported as “no binding”.

Take LANTAAEAVLQGRAESILAYHQQNVPRAKLDQAPKVPPTPEPLPLNT (other, not shown: large carriers, Two-hybrid prey) [GAL4 AD fusion of B9L partial fragment, residues 245-291 of SEQ ID NO: 2]: the binding result is recorded as “no binding”.

With B4, the binding result is listed as “binds”.

In a further assay the target is T1, Mutated mouse β-catenin S33Y. As to the kind of experiment: co-immunoprecipitation from COS-7 lysates with anti-GFP antibody, Western blotting with anti-β-catenin antibody. An excerpt:
The B9L cDNA fragment obtained in Example 1 was inserted into pEGFP-C2, green fluorescent protein (GFP) expression vector (Clontech), to construct an expression plasmid for GFP-B9L fusion protein (hereinafter abbreviated as GFP-B9L). Mutated mouse β-catenin S33Y cDNA wherein serine 33, the target site of GSK-3β-mediated phosphorylation, is substituted with tyrosine was subcloned into animal cell expression plasmid vector pMKITneo (Nakamura et al., Genes to cells 3: 395 (1998)) to construct an expression plasmid for S33Y β-catenin. These plasmids were transfected using LipofectAMINE (Life Technologies) into monkey kidney cell line COS-7 cells (ATCC: CRL-1651) for forced expression. After 24 hr, the cells were harvested to prepare cell lysates by adding buffer A containing 1% Triton X-100. The cell lysates were reacted with anti-GFP antibody or anti-β-catenin antibody at 4° C. for 1 hr to form an immune complex between GFP-B9L or S33Y β-catenin and the respective antibody, and then Protein G-Sepharose 4B (Amersham Pharmacia Biotech), which is capable of binding to IgG, was added to the reaction solution to adsorb the immune complex. The Protein G-Sepharose 4B was washed well with lysis buffer A, and SDS-PAGE sample buffer was added to elute the immune complex. […]
For orientation: A western blot detects proteins with antibodies after separation by electrophoresis.
Take B5: the binding result is on record as “binds”.

(Values after patent US20040073001A1 (Kyowa Kirin, published 2004).)
